Test results as given in patent publication US20020123082A1 (NEW YORK UNIVERSITY, published 2002).
Non-standard residues stand in square brackets, D forms with d. No end group written: not given here. pY = N[C@@H](Cc1ccc(OP(=O)(O)O)cc1)C(=O)O; pT = C[C@@H](OP(=O)(O)O)[C@H](N)C(=O)O

T1: human F-box protein FBP5 (human, UniProt Q9UKT4 1-447)
T1 construct: Gal4 AD fusion in the two-hybrid screen; the clone appeared to be full length
T1 sequence: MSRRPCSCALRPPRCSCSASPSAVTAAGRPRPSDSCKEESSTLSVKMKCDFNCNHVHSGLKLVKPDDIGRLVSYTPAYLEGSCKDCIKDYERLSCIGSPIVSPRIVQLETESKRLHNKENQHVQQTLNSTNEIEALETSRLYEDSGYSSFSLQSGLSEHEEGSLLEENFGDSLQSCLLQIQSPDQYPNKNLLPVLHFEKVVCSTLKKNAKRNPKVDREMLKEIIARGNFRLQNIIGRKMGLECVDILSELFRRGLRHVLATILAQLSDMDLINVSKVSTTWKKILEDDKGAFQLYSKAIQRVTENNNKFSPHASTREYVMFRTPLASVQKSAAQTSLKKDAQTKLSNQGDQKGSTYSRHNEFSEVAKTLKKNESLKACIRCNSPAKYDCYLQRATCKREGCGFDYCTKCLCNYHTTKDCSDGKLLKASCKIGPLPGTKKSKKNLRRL

T2: human F-box protein FBP3a (human, UniProt Q9UKT7 1-428)
T2 sequence: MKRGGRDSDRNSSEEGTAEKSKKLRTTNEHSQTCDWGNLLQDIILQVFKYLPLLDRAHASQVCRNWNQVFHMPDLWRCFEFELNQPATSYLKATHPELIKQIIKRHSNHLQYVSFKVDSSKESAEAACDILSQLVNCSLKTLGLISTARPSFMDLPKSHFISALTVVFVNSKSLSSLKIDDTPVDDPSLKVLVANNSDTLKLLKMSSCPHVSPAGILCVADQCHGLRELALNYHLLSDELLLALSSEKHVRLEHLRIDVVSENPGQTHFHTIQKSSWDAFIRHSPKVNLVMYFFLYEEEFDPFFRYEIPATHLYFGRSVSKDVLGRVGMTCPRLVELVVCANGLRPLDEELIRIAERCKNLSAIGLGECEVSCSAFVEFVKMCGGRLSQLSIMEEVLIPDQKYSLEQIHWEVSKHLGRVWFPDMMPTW

T3: human F-box protein FBP1 (human, UniProt Q9Y297 1-605)
T3 sequence: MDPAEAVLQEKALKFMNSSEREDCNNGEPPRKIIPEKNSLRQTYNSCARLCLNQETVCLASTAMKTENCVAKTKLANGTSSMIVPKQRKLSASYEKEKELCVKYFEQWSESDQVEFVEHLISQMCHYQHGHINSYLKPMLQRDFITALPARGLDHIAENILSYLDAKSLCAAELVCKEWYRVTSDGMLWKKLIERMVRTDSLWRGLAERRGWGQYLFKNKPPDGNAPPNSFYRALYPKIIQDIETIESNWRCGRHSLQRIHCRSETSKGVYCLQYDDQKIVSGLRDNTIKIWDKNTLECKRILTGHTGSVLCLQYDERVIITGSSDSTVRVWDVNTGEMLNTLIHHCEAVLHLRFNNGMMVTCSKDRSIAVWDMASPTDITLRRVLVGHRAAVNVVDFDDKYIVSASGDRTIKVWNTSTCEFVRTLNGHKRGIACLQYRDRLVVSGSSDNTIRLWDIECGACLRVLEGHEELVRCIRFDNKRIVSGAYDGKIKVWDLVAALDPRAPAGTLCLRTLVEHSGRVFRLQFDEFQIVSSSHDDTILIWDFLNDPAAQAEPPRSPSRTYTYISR

T4: human F-box protein FBP2 (human, UniProt Q9UKT8 1-419, limits assumed)
T4 sequence: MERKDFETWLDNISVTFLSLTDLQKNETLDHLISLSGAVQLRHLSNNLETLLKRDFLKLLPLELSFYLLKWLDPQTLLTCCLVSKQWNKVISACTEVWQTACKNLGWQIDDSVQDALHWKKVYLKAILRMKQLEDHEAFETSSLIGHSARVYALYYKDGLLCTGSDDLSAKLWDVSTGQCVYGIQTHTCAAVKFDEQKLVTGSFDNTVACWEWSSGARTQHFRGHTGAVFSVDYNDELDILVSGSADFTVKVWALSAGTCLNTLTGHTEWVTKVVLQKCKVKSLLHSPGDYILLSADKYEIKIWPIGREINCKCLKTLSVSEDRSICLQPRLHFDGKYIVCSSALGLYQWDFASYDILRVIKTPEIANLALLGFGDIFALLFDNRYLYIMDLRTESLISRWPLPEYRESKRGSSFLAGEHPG

B1: Flag-tagged (ΔF)FBP3a (other, not shown: small tags and cut ends)
chain: MKRGGRDSDRNSSEEGTAEKSKKLRTTNEHSQTCDWGNLRCFEFELNQPATSYLKATHPELIKQIIKRHSNHLQYVSFKVDSSKESAEAACDILSQLVNCSLKTLGLISTARPSFMDLPKSHFISALTVVFVNSKSLSSLKIDDTPVDDPSLKVLVANNSDTLKLLKMSSCPHVSPAGILCVADQCHGLRELALNYHLLSDELLLALSSEKHVRLEHLRIDVVSENPGQTHFHTIQKSSWDAFIRHSPKVNLVMYFFLYEEEFDPFFRYEIPATHLYFGRSVSKDVLGRVGMTCPRLVELVVCANGLRPLDEELIRIAERCKNLSAIGLGECEVSCSAFVEFVKMCGGRLSQLSIMEEVLIPDQKYSLEQIHWEVSKHLGRVWFPDMMPTW
notes: pcDNA3 construct, Flag tag at the C-terminus; also called Flag-tagged (deltaF)FBP3a
B2: phospho-p27 peptide NAGSVEQT*PKKPGLRRRQT (peptide)
peptide: NAGSVEQ[pT]PKKPGLRRRQT
notes: Coupled to Sepharose beads; 19 C-terminal residues of p27; also called phospho-T187 p27 peptide; p27 phosphopeptide
B3: human F-box protein FBP7 (other)
chain: MSNTRFTITLNYKDPLTGDEETLASYGIVSGDLICLILHDDIPPPNIPSSTDSEHSSLQNNEQPSLATSSNQTSIQDEQPSDSFQGQAAQSGVWNDDSMLGPSQNFEAESIQDNAHMAEGTGFYPSEPLLCSESVEGQVPHSLETLYQSADCSDANDALIVLIHLLMLESGYIPQGTEAKALSLPEKWKLSGVYKLQYMHHLCEGSSATLTCVPLGNLIVVNATLKINNEIRSVKRLQLLPESFICKEKLGENVANIYKDLQKLSRLFKDQLVYPLLAFTRQALNLPNVFGLVVLPLELKLRIFRLLDVRSVLSLSAVCRDLFTASNDPLLWRFLYLRDFRDNTVRVQDTDWKELYRKRHIQRKESPKGRFVLLLPSSTHTIPFYPNPLHPRPFPSSRLPPGIIGGEYDQRPTLPYVGDPISSLIPGPGETPSQLPPLRPRFDPVGPLPGPNPILPGRGGPNDRFPFRPSRGRPTDGRLSFM
B4: control phospho-peptide AEIGVGAY*GTVYKARDPHS of human Cdk4 (peptide)
peptide: AEIGVGA[pY]GTVYKARDPHS
notes: Coupled to beads; also called unrelated phospho-peptide

Assays:
human Cul1 (endogenous) [1] = target: T5, human Cul1 (endogenous) (human, UniProt Q13616 1-776); assay: anti-Flag co-immunoprecipitation from transfected HeLa cells, anti-Cul1 immunoblot
T5 construct: A slower migrating form is said to be likely modified by a ubiquitin-like molecule
T5 sequence (Q13616 whole entry): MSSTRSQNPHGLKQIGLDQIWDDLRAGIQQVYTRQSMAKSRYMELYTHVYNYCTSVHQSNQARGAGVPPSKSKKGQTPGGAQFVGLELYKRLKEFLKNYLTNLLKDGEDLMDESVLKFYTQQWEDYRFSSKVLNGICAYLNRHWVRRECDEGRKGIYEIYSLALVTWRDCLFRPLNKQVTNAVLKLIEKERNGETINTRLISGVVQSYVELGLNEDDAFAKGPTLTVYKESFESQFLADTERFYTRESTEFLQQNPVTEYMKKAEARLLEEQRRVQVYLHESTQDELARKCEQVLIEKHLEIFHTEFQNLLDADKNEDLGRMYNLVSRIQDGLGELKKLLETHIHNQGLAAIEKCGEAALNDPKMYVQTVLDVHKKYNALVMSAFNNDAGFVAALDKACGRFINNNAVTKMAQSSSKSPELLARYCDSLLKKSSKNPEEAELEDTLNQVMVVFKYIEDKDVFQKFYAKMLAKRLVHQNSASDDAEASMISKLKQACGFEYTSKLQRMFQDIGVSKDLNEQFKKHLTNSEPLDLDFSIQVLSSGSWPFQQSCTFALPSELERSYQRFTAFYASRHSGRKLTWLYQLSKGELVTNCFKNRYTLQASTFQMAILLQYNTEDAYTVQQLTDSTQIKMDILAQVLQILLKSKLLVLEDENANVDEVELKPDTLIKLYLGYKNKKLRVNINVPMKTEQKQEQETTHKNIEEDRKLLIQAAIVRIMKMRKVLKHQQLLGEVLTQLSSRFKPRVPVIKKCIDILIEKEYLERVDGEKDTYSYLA
Text: HeLa cells were transfected with mammalian expression plasmids encoding Flag-tagged versions of FBP1 (lane 1), (ΔF)FBP1 (lane 2), FBP4 (lane 3), FBP7 (lane 5), FBP2 (lane 7), (ΔF)FBP2 (lane 8), FBP3a (lane 9), (ΔF)FBP3a (lane 10), or with an empty vector (lanes 4 and 6). Cells were lysed and extracts were subjected to immunoprecipitation with a rabbit anti-Flag antibody (lanes 1-8). Immunoprecipitates were then immunoblotted with a mouse anti-Cul1 monoclonal antibody, a rabbit anti-Skp1 polyclonal antibody or a rabbit anti-Cul2 polyclonal antibody, as indicated. The last lane contains 25 μg of extracts from non-transfected HeLa cells; […] contains recombinant Cul1, Skp1, or Cul2 proteins used as markers.

human F-box protein FBP5 = target: T1, human F-box protein FBP5; assay: in vitro translated 35S-FBP on phospho-p27 peptide Sepharose beads, RIPA wash, autoradiography
Protocol: (§1) FIG. 37A-C. […] Beads were washed with RIPA buffer and bound proteins were eluted and subjected to electrophoresis and autoradiography (Upper Panel). Bottom Panel: 10% of the in vitro translated [35S]FBP inputs. […] Beads were washed with RIPA buffer and bound proteins were immunoblotted with antibodies to the proteins indicated on the left of each panel. A portion of the HeLa extract (25 μg) was used as a control (lane 4). […] C. […] Beads were washed with RIPA buffer and bound proteins subjected to electrophoresis and autoradiography.

[2] = target: T2, human F-box protein FBP3a; assay: as above
Protocol: as §1

human F-box protein FBP1 = target: T3, human F-box protein FBP1; assay: as above
Protocol: as §1

human F-box protein FBP2 = target: T4, human F-box protein FBP2; assay: as above
Protocol: as §1

His-tagged Elongin C = His-tagged Elongin C (human, UniProt Q15369 1-112); assay: pull-down of in vitro translated 35S-FBP on His-Elongin C Nickel-agarose beads
Sequence of His-tagged Elongin C (Q15369 whole entry): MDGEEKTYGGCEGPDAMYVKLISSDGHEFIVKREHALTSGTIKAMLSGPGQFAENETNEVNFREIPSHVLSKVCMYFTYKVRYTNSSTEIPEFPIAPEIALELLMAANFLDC
Protocol: FIG. 29. FBPs interact specifically with Skp1 through their F-box. The cDNAs of FBPs (wild type and mutants) were transcribed and translated in vitro (IVT) in the presence of 35S- methionine. […] Bound IVT proteins were analyzed by SDS-PAGE and autoradiography. The arrows on the left side of the panels point to the indicated FBPs. The apparent molecular weights of the protein standards are indicated on the right side of the panels.
As examples of the human FBP family, a more detailed characterization of some FBPs was performed. To confirm the specificity of interaction between the novel FBPs and human Skp1, eight in vitro translated FBPs were tested for binding to His-tagged-Skp1 pre-bound to Nickel-agarose beads. As a control Elongin C was used, the only known human Skp1 homolog.

[3] = target: B2; assay: in vitro translated 35S-FBP on phospho-p27 peptide Sepharose beads, RIPA wash, autoradiography
Protocol: as §1

[4] = target: human Skp1 (endogenous, HeLa cells) (human, UniProt P63208 2-163); assay: HeLa cell extract on peptide beads, RIPA wash, immunoblot
Sequence of human Skp1 (endogenous, HeLa cells) (P63208 2-163 limits assumed): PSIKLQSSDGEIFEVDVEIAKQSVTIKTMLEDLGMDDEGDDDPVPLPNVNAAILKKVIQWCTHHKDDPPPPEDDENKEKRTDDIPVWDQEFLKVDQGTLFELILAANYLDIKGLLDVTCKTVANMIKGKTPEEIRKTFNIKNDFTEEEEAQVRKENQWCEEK
Protocol: (§2) Beads were washed with RIPA buffer and bound proteins were immunoblotted with antibodies to the proteins indicated on the left of each panel. A portion of the HeLa extract (25 μg) was used as a control (lane 4). […] C. […] Beads were washed with RIPA buffer and bound proteins subjected to electrophoresis and autoradiography.
(§3) Proteins stably associated with the beads were examined by immunoblotting.

human Cul1 (endogenous) [5] = target: T5, human Cul1 (endogenous); assay: as above
Protocol: as §2, §3

human F-box protein Skp2 = target: T6, human F-box protein Skp2 (human, UniProt Q13309 1-424); assay: as above
T6 construct: Used as in vitro translated 35S-Skp2, as endogenous protein of HeLa and IMR90 extracts and as untagged baculovirus protein; also called S-phase kinase-associated protein 2
T6 sequence (Q13309 whole entry): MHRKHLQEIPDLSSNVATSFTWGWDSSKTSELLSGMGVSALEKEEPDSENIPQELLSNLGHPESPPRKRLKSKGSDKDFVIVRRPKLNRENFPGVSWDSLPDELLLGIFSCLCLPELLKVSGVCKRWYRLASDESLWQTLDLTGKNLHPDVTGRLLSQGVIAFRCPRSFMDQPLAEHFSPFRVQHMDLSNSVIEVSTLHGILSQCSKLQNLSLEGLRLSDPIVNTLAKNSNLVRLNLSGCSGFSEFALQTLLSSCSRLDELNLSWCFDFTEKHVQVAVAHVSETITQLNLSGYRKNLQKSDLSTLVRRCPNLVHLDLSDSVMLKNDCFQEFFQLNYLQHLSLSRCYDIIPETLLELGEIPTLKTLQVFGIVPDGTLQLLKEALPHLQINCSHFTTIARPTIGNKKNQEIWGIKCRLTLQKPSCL
Protocol: as §2, §3

B1: no binding (human Cul1 (endogenous) [1]).

B2: no binding (human F-box protein FBP5); no binding [2]; no binding (human F-box protein FBP1). B2: no binding (human F-box protein FBP2).

B3: no binding (His-tagged Elongin C); no binding [3].

B4: no binding [4]; no binding (human Cul1 (endogenous) [5]); no binding (human F-box protein Skp2).
